First the molecules themselves.
B1: human CD8α expressed on murine T cell hybridoma (3G8) (receptor)
chain: not shown
notes: whole, on cells; also called CD8α chains
B2: CEA liberated by PIPLC from CEA-GFP transfected 293T cells (other, UniProt P06731 35-685, looked up)
chain: KLTIESTPFNVAEGKEVLLLVHNLPQHLFGYSWYKGERVDGNRQIIGYVIGTQQATPGPAYSGREIIYPNASLLIQNIIQNDTGFYTLHVIKSDLVNEEATGQFRVYPELPKPSISSNNSKPVEDKDAVAFTCEPETQDATYLWWVNNQSLPVSPRLQLSNGNRTLTLFNVTRNDTASYKCETQNPVSARRSDSVILNVLYGPDAPTISPLNTSYRSGENLNLSCHAASNPPAQYSWFVNGTFQQSTQELFIPNITVNNSGSYTCQAHNSDTGLNRTTVTTITVYAEPPKPFITSNNSNPVEDEDAVALTCEPEIQNTTYLWWVNNQSLPVSPRLQLSNDNRTLTLLSVTRNDVGPYECGIQNELSVDHSDPVILNVLYGPDDPTISPSYTYYRPGVNLSLSCHAASNPPAQYSWLIDGNIQQHTQELFISNITEKNSGLYTCQANNSASGHSRTTVKTITVSAELPKPSISSNNSKPVEDKDAVAFTCEPEAQNTTYLWWVNGQSLPVSPRLQLSNGNRTLTLFNVTRNDARAYVCGIQNSVSANRSDPVTLDVLYGPDTPIISPPDSSYLSGANLNLSCHSASNPSPQYSWRINGIPQQHTQVLFIAKITPNNNGTYACFVSNLATGRNNSIVKSITVSASGTSPGLSA
notes: Soluble form in the supernatant of PIPLC treated transfectants; also called B9 reactive material

Assay [1] has as its target B2. Description: absorption on transfected hybridoma cells, immunoblot with mAb B9. As to the method:
(§1) CEA exists as a GPI anchored glycoprotein on the surface of IECs. This molecule can be cleaved using the enzyme PIPLC. […] Absorption of CEA by either CD4 or CD8 was determined by immunoblotting with mAb B9. […] These findings are consistent with functional properties previously ascribed to gp180.
(In general: A western blot detects proteins with antibodies after separation by electrophoresis.)

For assay [2], the target named is T1, human CD4 expressed on murine T cell hybridoma (3G4) (human, UniProt P01730 26-458).
T1 construct: whole, on cells
Description: absorption of PIPLC-released CEA on transfected hybridoma cells, immunoblot with mAb B9. As to the method:
as §1

Consider B1, for which the binding result in assay [1] is recorded as “binds”.

Take B2: the binding result in assay [2] is reported as “no binding”.

The values are drawn from patent US20050053613A1 (MOUNT SINAI SCHOOL OF MEDICINE, published 2005).
